The supplement of paper PMC9170038

system: MS2 coat protein; assay: apparent KD of MS2 coat protein; higher = weaker reporter binding; conditions: Eterna round: R107; input ligand: arginine 13.2 mM
Experimental: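 RNA-MaP round R107: designed RNA switches with theophylline, tryptophan, arginine or FMN aptamers are transcribed on-chip within common flanks. They are titrated with SNAP-549-labelled MS2 coat protein in RNA-MaP buffer (100 mM Tris pH 7.5, 80 mM KCl, 4 mM MgCl2), without ligand or with the indicated ligand. Median apparent KD per design.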

| Sequence | apparent KD of MS2 coat protein |
| --- | --- |
| GGCCUUGCGGGCGCCCGCAAGGCCGCGGAUACCAGCGAGGUCCAUCGCCCUUGGCAGCCGAACAUGAGGAUCACCCAUGUCGGUU [Same State - Theophylline A Attempt #6 (HarryS)] | 9.84 nM |
| AAUUGGGUUGGUGAGGUGGUUGGAGGCGAUACCAGCGUGGAAACACGCCCUUGGCAGCGCCAAAACAUGAGGAUCACCCAUGUUA [Plzen] | 42 nM |
| UUAAUCAUAUAAGAAAACUUAUAUGCAGAAGGAGCGUGAUAAAACACAGGUAGGUCGCUGAAGGGAACAUGAGGAUCACCCAUGU [AstrosSSArgA#7] | 28 nM |
| CCGGAGACCGUGUCAGCGGAAGCAAGAACACGAGGACCGGUACGGCCGCCACUCGAAAGAAGACAUGAGGAUCACCCAUGUCCAU [theeternabot_exclusion_MS2_Trp_A_43] | 10.5 nM |
| CUGCCAUGCAGAGAUACCAGUGAGCCCAGAACAUGAGGAUCACCCAUGUACGCCGCAGACCACCCUUGGCAGCUCUGCAUGGCAG [#$@$%] | 12.7 nM |
| AGCCGAAACCUUGAUACCAGAUCAUGCUGCACAUGAGGAUCACCCAUGUCGUUAAACAUGGUCCCUUGGCAGCAAGUUAGGAUCU [Usustiusso] | 114 nM |
| AUAAUAAUCCUCAUGUAAGGUCCUCGAUAACGAGGACCGGUACGGCCGCCACUCGAACAUGAGGAUCACCCAUGUACGAGGACCA [M' - T' - T - MS2 - T'' Design 1] | 19.6 nM |
| CCUUAAUAUGGAAGGAGCGCGCUAACAUGAGGAUCACCCAUGUAAAGGGUUUUAGGCUUAGCGCAGGUAGGUCGCCGUAAGAACC [#09 Exclusion - Arginine B] | 288 nM |
| UUUACAUGAGGAUCACCCAUGUGCCAUGAUACCAGACAUGAAAAUGUCCCUUGGCAGCAUGAAGGUACCUCAUCGGGAAACCGAA [Malomerice] | 28.5 nM |
| UUCAGCUAGUCGGCCGCCACUGCAUGAGGAUCACCCAUGUAGGUCCACACUGCUUCGGCAGUGAGUAGGACCGGGACUAGCUGAG | 11.4 nM |
| GGCGCGGUGAUGGAAGCCGAACGCUAGGUACGAGGACCGGUACGGCCGCCACUCGUAGUCCUGGGACAUGAGGAUCACCCAUGUA [Same State Trp A GF20] | 39.3 nM |
| AAGGGACAUGAGGAUCACCCAUGUACCGAAGGAGCGGCAGAGAUGCCAGGUAGGUCGCGGUACUUGCCGGGUCAUUCAUGCUAAA [Isxeon] | 9.48 nM |
| UAUCUACAUAUAUAGGUUAUUCGAUUAUUUCGAGGACCGGUACGGCCGCCACUCGUUAACAUAUACAUGAGGAUCACCCAUGUUA [JR_Nu_SSTryptoA_Sub023] | 15.6 nM |
| GUGAGCGCCGAACAUCGCUGGUCCUCUAUCCGAGGACCGGUACGGCCGCCACUCGACAUGAGGAUCACCCAUGUUGGCACUGGCG [Inbemama] | 9.22 nM |
| AGCCCUGUGCUAGAUACCAGCUACAUGAGGAUCACCCAUGUGCGUCAGAAAUGACUGUGUAGCCCUUGGCAGCUACUCGCAUGUA [Exclusion - Theophylline B (Freestyle 6)] | 13 nM |
| AGACGAGAAGAGGUUUACCCAUGUACAGAAGGAGCGUCGUUGACGACAGGUAGGUCGCUGAAAACAUGAGGAUCACCCAUGUUGA [#05 Exclusion - Arginine A] | 62.9 nM |
| AAUACAGUGUCGGCCGCCACUGAAACAUGACAUGAGACAUGAGGAUCACCCAUGUACAUAAUAAACAGGACCGGGACCCAUGUAU [Same State Tryptophan B] | 28.9 nM |
| CUAAGAGUUACGGCCGCCACUAGUUGGGAUCCGCCCGUAAAAUCACAUGAGGAUCACCCAUGUCCUAGGACCGGGUAAUCGCAUU [theeternabot_sameState_MS2_Trp_B_31] | 110 nM |
| GCUAGGUCUACGGCCGCCACUAGACGUGGGUUUAACAUGAGGAUCACCCAUGUGCUACAGGCGCAUAGGACCGGGUAGACCUAGC [SSTB NP+V+V2 #10 +-Same Structure] | 532 nM |
| AGACAUGUAGGAUAAUUGACUAUUACAGAUACCAGACUGUCUAAUGUCCCUUGGCAGCUGCAUUACAUGAGGAUCACCCAUGUUA [JR_ExcTheophyA_Sub012] | 16.5 nM |
| GUCGCUGAGAGAAGGAGCGUGAAGACAUGAGGAUCACCCAUGUAGAGGCGCCGAAGGCGUUCGCAGGUAGGUCGCUCUCAGUGAC [#1 Same State - Arginine B Attempt #21 (HarryS)] | 10.2 nM |
| UUCAGCUAGUCGGCCGCCACUACAUGAGGAUCACCCAUGUUCCUAAAACACUGCUUCGGCAGUGGUAGGACCGGGACUAGCUGAG | 41.1 nM |
| UUUUAAGGGAUCGGUGCUGGUAGCAGAGAUACCAGAGUAAUGAUACUCCCUUGGCAGCUCAGUACAUGAGGAUCACCCAUGUUUU [Exclusion Theophylline A GF25] | 16.7 nM |
| ACGAACGAUAGCGAUACCAGACGUACAUGAGGAUCACCCAUGUUUUGGGUAAGGUUAAUAGUCCCUUGGCAGCGCUUUAAGUUCG [#10 Exclusion-TheophyllineB] | 50.5 nM |
| UGAUCCUACAGAGAUACCAGUGCCACUAAAUAACUAAACACAUGAGGAUCACCCAUGUAACACCCUUGGCAGCUCAACUAAAGGG [Same State Theophylline B GF16] | 19.7 nM |
| ACGUAAUGCAGAAGGAGCGUCUUAUUAAUACAUGAGGAUCACCCAUGUUAUAUUUAUGGUAGACAGGUAGGUCGCUGAAGUACGA [JR_SSArginiB_Sub008] | 8.86 nM |
| AUGCAGAACACGGCCGCCACUCCAUGUAUACAUGAGGAUCACCCAUGUAAUUUGUAUUUUUUAUAGAGGACCGGGUGAAAUGCAA [JR_SSTryptoB_Sub012] | 26.7 nM |
| GGACUAACCAGAAGGAGCGACGCAAAGCAGAAACUGCAUCCUCCGCACGAGGAUCACCCGUGUCAGGUAGGUCGCUGGUUAGUCG [ArgBX 28] | 18.8 nM |
